Measured values: patent US7387779B2, “Anti-angiogenic proteins and fragments and methods of use thereof” (Beth Israel Deaconess Medical Center, priority 1998, dated 2008)

Tests used:
[1] = system: Caspase-3 in PC-3 cells; test: Caspase-3 assay; type: cell-based, human
Procedure: Tumstatin also altered cell morphology of C-PAE cells as monitored by phase contrast microscopy. After treating cells with 20 μg/ml of Tumstatin in the presence of 10% FCS for 24 hours on fibronectin-coated plates, the typical morphological features of apoptotic cells, membrane blebbing, cytoplasmic shrinkage, and chromatin condensation could be observed. […] Caspase-3 assay: Caspase-3 (CPP32) is an intracellular protease activated at the early stage of apoptosis, and initiates cellular breakdown by degrading structural and DNA repair proteins (Casciola-Rosen, L. et al., 1996, J. Exp. Med. 183:1957-64; Salvesen, G. S. et al., 1997, Cell 91:443-46). The protease activity of Caspase-3 was measured spectrophotometrically by detection of the chromophore (p-nitroanilide) cleaved from the labeled substrate (DEVD-pNA). C-PAE cells or PC-3 cells (0.5×10^6 per well) were plated onto a 6-well plate precoated with fibronectin (10 μg/ml) in DMEM supplemented with 10% FCS, and incubated overnight. The next day, the medium was replaced with DMEM containing 2% FCS and then incubated overnight at 37° C. Then cells were then stimulated with bFGF (3 ng/ml) in DMEM supplemented with 2% FCS, and also containing either TNF-α (80 ng/ml, positive control) or Tumstatin (10 μg/ml), and incubated for 24 hours. Controls received PBS buffer. […] Cells were counted and resuspended in cell lysis buffer (Clontech) at a concentration of 4×10^7 cells/ml. […] The absorbance was measured in a microplate reader (Bio-Rad, Hercules, Calif., USA) at 405 nm. […]
The results are shown in FIG. 53, which is a histogram showing caspase-3 activity (as measured at OD405, y-axis) of (x-axis) the control, control+DEVD-fmk, TNF-α, TNF-α+DEVD-fmk, Tumstatin-44-131 (1 μg/ml and 10 μg/ml), and Tumstatin-44-131 (10 μg/ml)+DEVD-fmk. […]
The protease activity of Caspase-3 in cells treated with T3 peptide was measured spectrophotometrically by detection of the chromophore (p-nitroanilide) cleaved from the labeled substrate (DEVD-pNA). […]

[2] = system: 786-O tumors; test: 786-O renal cell carcinoma xenograft; type: in vivo, athymic nude mice; conditions: for inhibition of tumor growth compared to placebo: 10 mg/kg I.P. daily, 10 days
Procedure: In the first group of six mice, the tumors were allowed to grow to about 700 mm^3. In a second group of six mice, the tumors were allowed to group to 100 mm^3. Arresten in sterile PBS was injected I.P. daily for 10 days, at a concentration of 20 mg/kg for the mice with tumors of 700 mm^3, and 10 mg/kg for the mice with tumors of 100 mm^3. Control mice received either BSA or the PBS vehicle. […] Tumors in the Arresten-treated mice shrank from 700 to 500 mm^3, while tumors in BSA-treated and control mice grew to about 1200 mm^3 in 10 days. […] The tumors were allowed to grow to either about 100 mm^3 or about 700^3. Each group contained 6 mice. Canstatin in sterile PBS was injected I.P. daily at a concentration of 10 mg/kg for 10 days. The control group received the same volume of PBS. The results are shown in FIGS. 17C (100 mm^3 tumors) and […] (700 mm^3 tumors). In both groups, the Canstatin-treated (.box-solid.) tumors actually shrank relative to the controls (□). Tumstatin's effect on another established primary tumors in mice was also studied. […] Tumstatin was intraperitoneally injected daily (6 mg/kg) for 10 days in sterile PBS. The control group received BSA injections. […] E. Coli-produced Tumstatin at 6 mg/kg inhibited the tumor growth of 786-O human renal cell carcinoma as compared to the BSA control (FIG. 27B). […] Each point represents the mean i SE of 5-6 mice per group. Data points marker with an asterisk were significant, with P<0.05 by one tailed Student's t test. […] The tumors were allowed to grow to a size of about 100-150 mm^3. The mice were then divided into groups of 5, and were injected daily intraperitoneally with 20 mg/kg of the E. Coli-expressed truncated Tumstatin lacking the 53 N-terminal amino acids (Kalluri, R. et al., 1996, J. Biol. Chem. 271:9062-68) for 10 days. Control mice received PBS injection. The results are shown in FIG. 28, which is a graph showing increase in tumor volume (y-axis) against day of treatment (x-axis) for control mice (□) and mice treated with the Tumstatin mutant N53 (●). […] Each point represents the mean ±SE of 5-6 mice/group. Data points marked with an asterisk were significant, with P<0.05 by one-tailed Student's t test.

LQRFTTMPFLFCNVNDVCNF [T3] was tested, and the “Caspase-3 activity in nonendothelial PC-3 cells” value (from here on “Caspase-3 activity”) [1] was “no difference”.

B1: Tumstatin-44-131: residues 44 to 131 of full-length Tumstatin (SEQ ID NO:33) (protein)
chain: FSFLFVQGNQRAHGQDLGTLGSCLQRFTTMPFLFCNVNDVCNFASRNDYSYWLSTPALMPMNMAPITGRALEPYISRCTVCEGPAIAI
modifications: Tumstatin-45-132 (amino acids 45-132 of SEQ ID NO10)
For B1, the “Caspase-3 activity” value [1] was “not observed”.

B2: Tumstatin: NC1 domain of the α3 chain of type IV collagen, residues 1-244 (SEQ ID NO:10) (protein, listed as Homo sapiens)
chain: GLKGKRGDSGSPATWTTRGFVFTRHSQTTAIPSCPEGTVPLYSGFSFLFVQGNQRAHGQDLGTLGSCLQRFTTMPFLFCNVNDVCNFASRNDYSYWLSTPALMPMNMAPITGRALEPYISRCTVCEGPAIAIAVHSQTTDIPPCPHGWISLWKGFSFIMFTSAGSEGTGQALASPGSCLEEFRASPFLECHGRGTCNYYSNSYSFWLASLNPERMFRKPIPSTVKAGELEKIISRCQVCMKKRH
In the case of B2, the “tumor volume on day 10” value ([2]; 6 mg/kg i.p. daily, start 600-700 mm^3, control 1096±179.7) is reported as 619±120.7 mm^3 and the “Caspase-3 activity” value [1] is reported as “no difference”.

B3: Tum-1: residues 54 to 244 of Tumstatin, lacking the N-terminal 53 amino acids (SEQ ID NO:22) (protein)
chain: QRAHGQDLGTLGSCLQRFTTMPFLFCNVNDVCNFASRNDYSYWLSTPALMPMNMAPITGRALEPYISRCTVCEGPAIAIAVHSQTTDIPPCPHGWISLWKGFSFIMFTSAGSEGTGQALASPGSCLEEFRASPFLECHGRGTCNYYSNSYSFWLASLNPERMFRKPIPSTVKAGELEKIISRCQVCMKKRH
modifications: Tum-1 (Tumstatin N-53) (amino acids 54-244 of SEQ ID NO10)
For B3, the “tumor volume on day 10” value ([2]; start 100-150 mm^3, 6 mg/kg in the result sentence (20 mg/kg in the method), control 345.0±24.0) was 110.0±29.0 mm^3.

B4: Canstatin: NC1 domain of the α2 chain of Type IV collagen (SEQ ID NO:6) (protein, listed as Homo sapiens)
chain: VSIGYLLVKHSQTDQEPMCPVGMNKLWSGYSLLYFEGQEKAHNQDLGLAGSCLARFSTMPFLYCNPGDVCYYASRNDKSYWLSTTAPLPMMPVAEDEIKPYISRCSVCEAPAIAIAVHSQDVSIPHCPAGWRSLWIGYSFLMHTAAGDEGGGQSLVSPGSCLEDFRATPFIECNGGRGTCHYYANKYSFWLTTIPEQSFQGSPSADTLKAGLIRTHISRCQVCMKNL
For B4, the “inhibition of tumor growth compared to placebo” value ([2]; large (700 mm^3) tumors) was 3 fold and the “inhibition of tumor growth compared to placebo” value ([2]; small (100 mm^3) tumors) was 4 fold.
